The target of test [1] is unrelated Fc-fused recombinant protein. The test is described as follows: ELISA, negative control Fc protein. A general note: In an ELISA, binding on a coated surface is turned into a signal by an enzyme label.
The target of another test is T1, human serum albumin (human, UniProt P02768 25-609).
T1 construct: Negative control of the ELISA; also called HSA
Kind of test: ELISA, negative control HSA. The method, then:
(§1) Streptavidin-coated Maxisorp plates (Nunc catalog 436110) were blocked for 1 h in Starting Block T20 (Pierce) and then coated with biotinylated CD137 (using same antigen as in panning) or negative controls (an unrelated Fc-fused recombinant protein and human serum albumin) for 1 h. Plates were rinsed with TBST and diluted lysate was applied to plates for 1 h. Following additional rinses, wells were treated with HRP-conjugated anti-Centyrin antibody (PAB25) for 1 h and then assayed with POD (Roche catalog 11582950001).

Test [2] concerns the target T2, recombinant biotinylated CD137 protein (Fc-fusion protein, R&D Systems 838-4B) (human, UniProt Q07011 24-186, biotinylated, sites not stated).
T2 construct: Bought Fc fusion; also called CD137-Fc
Kind of test: ELISA, lysate on biotinylated CD137-Fc. The procedure: as §1

In test [3] the target is extracellular domain of human CD137 on the surface of CHO-K1 cells (human, UniProt Q07011 24-186). Kind of test: flow cytometry on CHO-K1 cells with human CD137 ECD. The procedure: Cell surface binding was analyzed via flow cytometry. Cenyrins were prepared at a maximal concentration of 500 nM in the presence of 125 nM anti His-mIgG1 antibody and then serially diluted in PBS/1% FCS buffer. Samples were then applied to approx 100 000 CHO-Kl cells expressing the extracellular domain of human CD137 on their surface. Unbound Centyrin/Antibody complexes were washed away and bound FN3 domains were detected by the addition of goat anti mouse-FITC labeled antibody. Samples were then aquired by flow cytometry. Subsequently, Mean flurescence intensity was plotted against the log Centyrin concentration and EC50 values were calculated by nonlinear regression using GraphPad Prism.
(In general: Flow cytometry measures light scatter and fluorescence of single cells or particles in a stream.)

For orientation: EC50 means the concentration needed to bring the measured effect to its halfway point. Lower therefore signals greater potency.

T1 sequence (P02768 25-609 limits assumed): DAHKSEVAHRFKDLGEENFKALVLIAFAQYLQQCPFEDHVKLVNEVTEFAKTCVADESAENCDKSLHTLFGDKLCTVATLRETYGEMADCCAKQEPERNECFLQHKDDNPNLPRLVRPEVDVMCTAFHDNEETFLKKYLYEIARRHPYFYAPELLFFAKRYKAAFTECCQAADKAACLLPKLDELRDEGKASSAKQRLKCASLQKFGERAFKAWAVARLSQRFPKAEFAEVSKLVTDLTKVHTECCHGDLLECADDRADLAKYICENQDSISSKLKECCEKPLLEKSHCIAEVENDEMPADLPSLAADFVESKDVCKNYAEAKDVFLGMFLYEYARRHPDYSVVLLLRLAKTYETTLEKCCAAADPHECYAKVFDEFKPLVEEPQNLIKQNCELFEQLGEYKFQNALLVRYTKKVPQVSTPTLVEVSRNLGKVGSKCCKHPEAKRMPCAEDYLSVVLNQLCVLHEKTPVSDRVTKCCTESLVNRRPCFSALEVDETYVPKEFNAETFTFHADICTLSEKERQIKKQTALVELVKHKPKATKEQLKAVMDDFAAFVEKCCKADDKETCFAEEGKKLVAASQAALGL

B1: ISOP193AR9P1B4 (designed binder, not shown: small tags and cut ends)
chain: LPAPKNLVVSRVTEDSARLSWRDLQYHTFDSFLIQYQESEKVGEAIVLTVPGSERSYDLTGLKPGTEYTVSIYGVGRHYTVYDSNPLSAIFTT
For B1, the ELISA Fc Control (RLU) in test [1] stood at 960 RLU. For the same molecule, in the test with human serum albumin, the “ELISA HSA (RLU)” value came to 480 RLU. In test [2], the “ELISA CD137 (RLU)” value was found to be 5.74e+06 RLU. In addition, the EC50 in test [3] came out at 13.9 nM.

B2: ISOP193AR9P1B10 (designed binder, not shown: small tags and cut ends)
chain: LPAPKNLVVSRVTEDSARLSWAFQWHIFDSFLIQYQESEKVGEAIVLTVPGSERSYDLTGLKPGTEYTVSIYGVGRHYTVYDSNPLSAIFTT
Regarding B2, in test [1], the ELISA Fc Control (RLU) was determined as 1520 RLU. Besides, in the test with human serum albumin, the “ELISA HSA (RLU)” value turned out to be 480 RLU. Further, the “ELISA CD137 (RLU)” value in test [2] was 8.12e+06 RLU. The response in test [3] was half-maximal at 1.21 nM (EC50).

B3: ISOP193AR9P1G11 (designed binder, not shown: small tags and cut ends)
chain: LPAPKNLVVSRVTEDSARLSWTNEQITKYGFDSFLIQYQESEKVGEAIVLTVPGSERSYDLTGLKPGTEYTVSIYGVGRHYTVYDSNPLSAIFTT
For B3, the ELISA Fc Control (RLU) in test [1] is 2240 RLU. Moreover, the “ELISA HSA (RLU)” value in the test with human serum albumin was 960 RLU. Also, in test [2], the “ELISA CD137 (RLU)” value was determined as 5.89e+06 RLU. For the same molecule, the EC50 in test [3] is 10.5 nM.

B4: ISOP193AR9P1F9 (designed binder, not shown: small tags and cut ends)
chain: LPAPKNLVVSRVTEDSARLSWPLFASDLNIFDSFLIQYQESEKVGEAIVLTVPGSERSYDLTGLKPGTEYTVSIYGVGRHYTVYDSNPLSAIFTT
On to B4, for which the ELISA Fc Control (RLU) in test [1] amounted to 1600 RLU. Also, the “ELISA HSA (RLU)” value in the test with human serum albumin is 560 RLU. Further, the “ELISA CD137 (RLU)” value in test [2] turned out to be 4.71e+06 RLU. In addition, the response in test [3] was half-maximal at 218 nM (EC50).

B5: ISOP193BR9P1B10 (designed binder, not shown: small tags and cut ends)
chain: LPAPKNLVVSRVTEDSARLSWAWNRHDFDSFLIQYQESEKVGEAIVLTVPGSERSYDLTGLKPGTEYTVSIYGVHWTVLRPFIDSNPLSAIFTT
Regarding B5, the ELISA Fc Control (RLU) in test [1] was 2640 RLU. For the same molecule, in the test with human serum albumin, the “ELISA HSA (RLU)” value was 1200 RLU. Moreover, the “ELISA CD137 (RLU)” value in test [2] stood at 9.73e+06 RLU. Besides, the EC50 in test [3] is 134 nM.

B6: ISOP193GR9P1A7 (designed binder, not shown: small tags and cut ends)
chain: LPAPKNLVVSRVTEDSARLSWTAPDAAFDSFAIFYHEFANPGEAIDLPVPGSERSYDLTGLKPGTEYDVRIYGVKGGTASIPLDAEFTT
On to B6, for which, in test [1], the ELISA Fc Control (RLU) turned out to be 1040 RLU. Further, the “ELISA HSA (RLU)” value in the test with human serum albumin was 480 RLU. Further, the “ELISA CD137 (RLU)” value in test [2] is 2.15e+06 RLU. For the same molecule, the EC50 in test [3] came to 606 nM.

B7: ISOP193ER9P1A11 (designed binder, not shown: small tags and cut ends)
chain: LPAPKNLVVSRVTEDSARLSWTAPDAAFDSFAIQYQEYVAHGEAIVLTVPGSERSYDLTGLKPGTEYHVRISGVKGGGVSWPLSAIFTT
With B7, in test [1], the ELISA Fc Control (RLU) worked out at 1200 RLU. Further, in the test with human serum albumin, the “ELISA HSA (RLU)” value amounted to 640 RLU. Also, in test [2], the “ELISA CD137 (RLU)” value was 1.28e+07 RLU. In test [3], this molecule showed an EC50 of 10.6 nM.

B8: ISOP193ER9P1E4 (designed binder, not shown: small tags and cut ends)
chain: LPAPKNLVVSRVTEDSARLSWTAPDAAFDSFAIIYQEYVKSGEAIVLTVPGSERSYDLTGLKPGTEYHVRIGGVKGGLLSLPLSAIFTT
In the case of B8, in test [1], the ELISA Fc Control (RLU) was found to be 1680 RLU. Moreover, the “ELISA HSA (RLU)” value in the test with human serum albumin was 480 RLU. For the same molecule, the “ELISA CD137 (RLU)” value in test [2] was determined as 1.26e+07 RLU. Moreover, the EC50 in test [3] came to 279 nM.

B9: ISOP193ER9P1B5 (designed binder, not shown: small tags and cut ends)
chain: LPAPKNLVVSRVTEDSARLSWTAPDAAFDSFAIQYQEYVAHGEAIVLTVPGSERSYDLTGLKPGTEYHVRISGVKGGGVSWPLSAIVTT
As to B9, the ELISA Fc Control (RLU) in test [1] was 1200 RLU. Besides, the “ELISA HSA (RLU)” value with human serum albumin stood at 400 RLU. For the same molecule, the “ELISA CD137 (RLU)” value in test [2] was found to be 1.27e+07 RLU. The EC50 in test [3] was found to be 7.34 nM.

B10: ISOP193ER9P1H2 (designed binder, not shown: small tags and cut ends)
chain: LPAPKNLVVSRVTEDSARLSWTAPDAAFDSFRISYLEDVYYGEAIVLTVPGSERSYDLTGLKPGTEYHVGIHGVKGGIDSFPLSAIFTT
As for B10, the ELISA Fc Control (RLU) in test [1] turned out to be 1360 RLU. Further, in the test with human serum albumin, the “ELISA HSA (RLU)” value turned out to be 560 RLU. In addition, in test [2], the “ELISA CD137 (RLU)” value was 5.18e+06 RLU. In test [3], this molecule gave an EC50 of 27.5 nM.

B11: ISOP193ER9P1A8 (designed binder, not shown: small tags and cut ends)
chain: LPAPKNLVVSRVTEDSARLSWTAPDAAFDSLDIYYFEHPVGGEAIVLTVPGSERSYDLTGLKPGTEYLVTIYGVKGGYLSMPLSAIFTT
For B11, the ELISA Fc Control (RLU) in test [1] was 1440 RLU. Further, in the test with human serum albumin, the “ELISA HSA (RLU)” value came to 400 RLU. Further, the “ELISA CD137 (RLU)” value in test [2] was found to be 1.43e+07 RLU. Moreover, a half-maximal response in test [3] (EC50) required 17 nM.

B12: ISOP193HR9P1C8 (designed binder, not shown: small tags and cut ends)
chain: LPAPKNLVVSRVTEDSARLSWTAPDAAFDSFEIYYFELRLGGEAIVLTVPGSERSYDLTGLKPGTEYLVTIYGVKGGGYSTPLSAIFTT
B12: the ELISA Fc Control (RLU) in test [1] was determined as 1360 RLU. Further, the “ELISA HSA (RLU)” value with human serum albumin came to 560 RLU. The “ELISA CD137 (RLU)” value in test [2] stood at 1.82e+07 RLU. Moreover, in test [3], the half-maximal effective concentration (EC50) is 3.27 nM.

B13: ISOP193ER9P1H11 (designed binder, not shown: small tags and cut ends)
chain: LPAPKNLVVSRVTEDSARLSWTAPDAAFDSFDIYYFEHPVGGEAIVLTVPGSERSYDLTGLKPGTEYLVAIYGVKGGVFSHPLSAIFTT
For the molecule B13, the ELISA Fc Control (RLU) in test [1] was determined as 1360 RLU. For the same molecule, the “ELISA HSA (RLU)” value in the test with human serum albumin worked out at 640 RLU. Moreover, the “ELISA CD137 (RLU)” value in test [2] is 2.08e+06 RLU. This molecule also registered a 50% effective concentration (EC50) in test [3] of 184 nM.

B14: ISOP193FR9P1H9 (designed binder, not shown: small tags and cut ends)
chain: LPAPKNLVVSRVTEDSARLSWTAPDAAFDSFEIYYDELRNPGEAIVLTVPGSERSYDLTGLKPGTEYAVTIYGVKGGRYSPPLSAIFTT
As to B14, in test [1], the ELISA Fc Control (RLU) amounted to 2000 RLU. In addition, the “ELISA HSA (RLU)” value in the test with human serum albumin is 800 RLU. Also, in test [2], the “ELISA CD137 (RLU)” value worked out at 2.42e+06 RLU. In test [3], this molecule returned an EC50 of 72.8 nM.

B15: ISOP193ER9P1C8 (designed binder, not shown: small tags and cut ends)
chain: LPAPKNLVVSRVTEDSARLSWTAPDAAFDSFDIYYFEHPVGGEAIVLTVPGSERSYDLTGLKPGTEYLVTIYGVKGGTYSLPLSAIFTT
In the case of B15, the ELISA Fc Control (RLU) in test [1] was 1040 RLU. In addition, the “ELISA HSA (RLU)” value with human serum albumin is 400 RLU. Besides, the “ELISA CD137 (RLU)” value in test [2] was found to be 1.67e+07 RLU. This molecule also registered an EC50 in test [3] of 12.4 nM.

B16: ISOP193FR9P1G4 (designed binder, not shown: small tags and cut ends)
chain: LPAPKNLVVSRVTEDSARLSWTAPDAAFDSFEIYYFENELGGEAIVLTVPGSERSYDLTGLKPGTEYLVTIYGVKGGDWSDPLSAIFTT
Consider B16, for which the ELISA Fc Control (RLU) in test [1] was found to be 1840 RLU. Moreover, in the test with human serum albumin, the “ELISA HSA (RLU)” value was 640 RLU. The “ELISA CD137 (RLU)” value in test [2] stood at 1.4e+07 RLU. The response in test [3] was half-maximal at 26.9 nM (EC50).

B17: ISOP193ER9P1E8 (designed binder, not shown: small tags and cut ends)
chain: LPAPKNLVVSRVTEDSARLSWTAPDAAFDSFDIYYFEHPVGGEAIVLTVPGSERSYDLTGLKPGTEYLVTIYGVKGGELSKPLSAIFTT
Consider B17, for which the ELISA Fc Control (RLU) in test [1] worked out at 880 RLU. Also, in the test with human serum albumin, the “ELISA HSA (RLU)” value was 480 RLU. For the same molecule, the “ELISA CD137 (RLU)” value in test [2] is 1.64e+07 RLU. In test [3], this molecule gave an EC50 of 17.7 nM.

B18: ISOP193ER9P1F7 (designed binder, not shown: small tags and cut ends)
chain: LPAPKNLVVSRVTEDSAHLSWTAPDAAFDSFDIYYFEHPVGGEAIVLTVPGSERSYDLTGLKPGTEYLVTIYGVKGGYLSMPLSAIFTT
Take B18: in test [1], the ELISA Fc Control (RLU) is 1200 RLU. The “ELISA HSA (RLU)” value with human serum albumin came to 480 RLU. Moreover, in test [2], the “ELISA CD137 (RLU)” value is 1.51e+07 RLU. For the same molecule, in test [3], a half-maximal effect (EC50) was put at 25 nM.

For the origin of these results see patent US20220259289A1 (Janssen / Centocor, published 2022).
